Results published in the RNAGym collection of RNA variant scans (doi:10.1021/acssynbio.7b00057).

B1: Pistol ribozyme (parent)
chain: GGGUCGUUGUUCCAUAAUCGCGUGGAUAUGGCACGCAAGUUUCUACCGGGCACCGUAAAUGUCCGACUGGAGCCGUUCGGGCGGCUAUAAACAGACCUCAGGCCCGAAGCGUGGCGGCACCUGCCGCCGGUGGUAAAAAAGAUCGGAAGAGCACACGUCU

Variants of: B1
Assay: aptazyme ON/OFF ratio, guanine; higher = stronger switching; co-transcriptional cleavage with and without guanine

| Variant | aptazyme ON/OFF ratio |
| --- | --- |
| U8C G9U U10C U11G C12A C13G | 1.17 |
| U8C G9U U11C C12A | 1.12 |
| U8C G9U U11C C12G | 1.24 |
| U8C G9U U11C C12U | 1.09 |
| U8C G9U U10G U11A C12A C13U | 1.72 |
| U8C G9U U10G U11A C12A C13A | 1.44 |
| U8C G9U U10G U11A C12A C13G | 1.17 |
| U8C G9U U11G C12U C13A | 1.16 |
| U8C G9U U11G C12U C13U | 1.14 |
| U8C G9U U11G C12U C13G | 1.15 |
| U8C G9U U10C U11G C12A | 1.07 |
| U8C G9U U10C U11G C12U | 1.22 |
| U8C G9U U10C U11G C12G | 1.12 |
| U8C G9U U10G C13A | 1.42 |
| U8C G9U U10G C13U | 1.67 |
| U8C G9U U10G C13G | 1.21 |
| U8C G9U U10C U11G C13U | 1.28 |
| U8C G9U U10C U11G C13G | 1.2 |
| U8C G9U U10C U11G C13A | 1.23 |
| U8C U10C C12U | 2.98 |
| U8C U10C C12G | 1.29 |

| Variant | aptazyme ON/OFF ratio |
| --- | --- |
| U8C U10C C12A | 1.34 |
| U8C G9U U10G U11G C13U | 1.27 |
| U8C G9U U10G U11G C13G | 1.13 |
| U8C G9U U10G U11G C13A | 1.14 |
| U8C U10A U11A C12A C13G | 1.07 |
| U8C U10A U11A C12A C13U | 1.12 |
| U8C U10A U11A C12A C13A | 1.19 |
| U8C U10A U11C C12A C13A | 1.11 |
| U8C U10A U11C C12A C13U | 1.08 |
| U8C U10A U11C C12A C13G | 1.07 |
| U8C G9U U10A C12U C13U | 1.09 |
| U8C G9U U10A C12U C13G | 1.2 |
| U8C G9U U10A C12U C13A | 1.18 |
| U8C G9U U10G U11G C12G | 1.18 |
| U8C G9U U10G U11G C12U | 1.12 |
| U8C G9U U10G U11G C12A | 1.22 |
| U8C G9U U10C U11A C12G | 1.17 |
| U8C G9U U10C U11A C12U | 1.17 |
| U8C G9U U10C U11A C12A | 1.15 |
| U8C U10A U11G C12U C13G | 1.22 |
| U8C U10A U11G C12U C13U | 1.27 |

| Variant | aptazyme ON/OFF ratio |
| --- | --- |
| U8C U10A U11G C12U C13A | 1.32 |
| U8C G9U U10G C12A C13G | 1.13 |
| U8C G9U U10G C12A C13A | 1.48 |
| U8C G9U U10G C12A C13U | 1.57 |
| U8C G9U U10C U11A | 1.44 |
| U8C G9U U10C U11C | 1.05 |
| U8C G9U U10C U11G | 1.33 |
| U8C G9U U10G U11C C12U C13A | 1.19 |
| U8C G9U U10G U11C C12U C13U | 1.19 |
| U8C G9U U10G U11C C12U C13G | 1.11 |
| U8C G9U U10C U11A C13U | 1.16 |
| U8C G9U U10C U11A C13G | 1.05 |
| U8C G9U U10C U11A C13A | 1.13 |
| U8C G9U C12G C13U | 1.25 |
| U8C G9U C12G C13G | 1.17 |
| U8C G9U U10A U11C C12U | 1.11 |
| U8C G9U U10A U11C C12G | 1.21 |
| U8C G9U U10A U11C C12A | 1.37 |
| U8C G9U U10G | 2.84 |
| U8C G9U U10A | 1.42 |
| U8C G9U U10C | 1.87 |

| Variant | aptazyme ON/OFF ratio |
| --- | --- |
| U8C G9U U10G C12U C13U | 1.01 |
| U8C G9U U10G C12U C13A | 1.28 |
| U8C G9U U10G C12U C13G | 1.11 |
| U8C G9U U10C U11C C12A C13A | 1.09 |
| U8C G9U U10C U11C C12A C13U | 1.07 |
| U8C G9U U10C U11C C12A C13G | 1.62 |
| U8C U10A U11C C12U C13U | 1.06 |
| U8C U10A U11C C12U C13A | 1.06 |
| U8C U10A U11C C12U C13G | 1.07 |
| U8C G9U U10G U11C C13U | 1.11 |
| U8C G9U U10G U11C C13A | 1.24 |
| U8C G9U U10G U11C C13G | 1.04 |
| U8C G9U U10G U11A C13U | 1.14 |
| U8C G9U U10G U11A C13G | 1.13 |
| U8C G9U U10G U11A C13A | 1.1 |
| U8C G9U U10G U11G | 2.19 |
| U8C G9U U10G U11C | 1.13 |
| U8C G9U U10G U11A | 1.13 |
| U8C G9U U11G C12A C13A | 1.16 |
| U8C G9U U11G C12A C13U | 1.26 |
| U8C G9U U11G C12A C13G | 1.18 |
